The target of assay [1] is C3b (human) (UniProt P01024). Briefly: cross-linking; quantitative cross-linking mass spectrometry (QCLMS) of C3b alone; C3b monomer and dimer labelled as in Chen et al, 2016c, in-gel digested with trypsin, then sequential digestion.
Assay [2] concerns the target T1, Mcm2 (S. cerevisiae, UniProt P29469 1-868).
T1 construct: Mcm2, S. cerevisiae, subunit of MCM2-7 in the OCCM complex; the search database held all 14 OCCM subunits; source: in the OCCM complex assembled on pUC19-ARS1 beads as described elsewhere (Evrin et al, 2009)
T1 sequence (looked up): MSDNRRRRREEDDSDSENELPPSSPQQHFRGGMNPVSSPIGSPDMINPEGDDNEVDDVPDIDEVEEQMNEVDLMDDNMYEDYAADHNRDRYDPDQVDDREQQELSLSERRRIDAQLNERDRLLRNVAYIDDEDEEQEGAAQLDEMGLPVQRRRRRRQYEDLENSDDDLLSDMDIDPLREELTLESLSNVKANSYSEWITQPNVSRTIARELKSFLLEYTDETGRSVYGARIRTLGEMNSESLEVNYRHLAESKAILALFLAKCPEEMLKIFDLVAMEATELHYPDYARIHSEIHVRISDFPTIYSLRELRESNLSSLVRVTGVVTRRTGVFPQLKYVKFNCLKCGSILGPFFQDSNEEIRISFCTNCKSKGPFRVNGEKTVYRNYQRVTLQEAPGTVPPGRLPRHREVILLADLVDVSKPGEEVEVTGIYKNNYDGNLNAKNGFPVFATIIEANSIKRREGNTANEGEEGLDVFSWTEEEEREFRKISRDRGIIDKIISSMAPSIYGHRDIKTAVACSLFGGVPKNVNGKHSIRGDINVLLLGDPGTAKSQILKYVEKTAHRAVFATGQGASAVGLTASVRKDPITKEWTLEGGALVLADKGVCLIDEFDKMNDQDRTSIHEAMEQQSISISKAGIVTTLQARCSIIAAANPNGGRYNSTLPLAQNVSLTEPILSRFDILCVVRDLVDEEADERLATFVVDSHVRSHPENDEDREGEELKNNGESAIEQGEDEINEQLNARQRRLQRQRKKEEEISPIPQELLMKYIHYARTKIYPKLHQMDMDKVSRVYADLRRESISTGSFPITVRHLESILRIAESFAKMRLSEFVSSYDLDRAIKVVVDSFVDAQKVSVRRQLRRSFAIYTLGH
Briefly: cross-linking; BS3 cross-linking of 200 ug OCCM complex on pUC19-ARS1 beads, 1:8,100 protein to crosslinker molar ratio, 2 h on ice; sequential digestion, SEC, LC-MS/MS, xiSEARCH, 5% FDR. The settings on record: both partners purified.

The target of assay [3] is T2, Mcm6 (S. cerevisiae, UniProt P53091 1-1017).
T2 construct: Mcm6, S. cerevisiae, subunit of MCM2-7 in the OCCM complex; source: in the OCCM complex assembled on pUC19-ARS1 beads as described elsewhere (Evrin et al, 2009)
T2 sequence (P53091 whole entry): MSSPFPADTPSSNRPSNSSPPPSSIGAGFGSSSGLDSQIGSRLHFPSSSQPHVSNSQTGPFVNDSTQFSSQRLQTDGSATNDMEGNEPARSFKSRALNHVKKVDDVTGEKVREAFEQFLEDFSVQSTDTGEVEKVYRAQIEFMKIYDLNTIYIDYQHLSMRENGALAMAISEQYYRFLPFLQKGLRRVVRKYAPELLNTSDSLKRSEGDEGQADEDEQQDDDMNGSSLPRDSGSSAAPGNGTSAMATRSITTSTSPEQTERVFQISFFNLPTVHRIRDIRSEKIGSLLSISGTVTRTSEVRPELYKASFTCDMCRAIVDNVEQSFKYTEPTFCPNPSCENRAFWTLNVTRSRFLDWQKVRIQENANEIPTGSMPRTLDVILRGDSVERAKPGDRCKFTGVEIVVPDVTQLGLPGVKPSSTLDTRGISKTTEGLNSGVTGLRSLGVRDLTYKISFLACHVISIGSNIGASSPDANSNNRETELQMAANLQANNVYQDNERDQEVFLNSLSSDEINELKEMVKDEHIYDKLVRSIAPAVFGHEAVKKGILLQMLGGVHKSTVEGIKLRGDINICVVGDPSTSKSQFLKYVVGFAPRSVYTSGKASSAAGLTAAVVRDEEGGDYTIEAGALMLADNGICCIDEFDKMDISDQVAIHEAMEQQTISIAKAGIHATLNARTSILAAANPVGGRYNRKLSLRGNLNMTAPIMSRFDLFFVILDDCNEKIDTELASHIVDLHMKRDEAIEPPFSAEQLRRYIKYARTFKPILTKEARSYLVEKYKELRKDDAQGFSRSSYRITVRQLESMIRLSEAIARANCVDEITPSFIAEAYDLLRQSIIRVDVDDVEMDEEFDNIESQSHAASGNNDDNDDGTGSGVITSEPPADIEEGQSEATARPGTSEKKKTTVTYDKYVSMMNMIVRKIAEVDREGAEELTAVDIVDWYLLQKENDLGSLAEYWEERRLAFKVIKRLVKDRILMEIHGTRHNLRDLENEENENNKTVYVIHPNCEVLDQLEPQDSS
The description is as above. The settings on record: both partners purified.

Results on 4 molecules are retold here after article PMC6753376 (Molecular Systems Biology, 2019).

Usually stoichiometry N stands for the number of molecules, sites or subunits per partner or assembly.

In the case of “C3b (from UniProt P01024 749-1663; P01024 749-1663) (natural protein)”, the stoichiometry N in assay [1] came out at 2.

B1: Orc2 (natural protein, S. cerevisiae, UniProt P32833 1-620, looked up)
chain: MLNGEDFVEHNDILSSPAKSRNVTPKRVDPHGERQLRRIHSSKKNLLERISLVGNERKNTSPDPALKPKTPSKAPRKRGRPRKIQEELTDRIKKDEKDTISSKKKRKLDKDTSGNVNEESKTSNNKQVMEKTGIKEKREREKIQVATTTYEDNVTPQTDDNFVSNSPEPPEPATPSKKSLTTNHDFTSPLKQIIMNNLKEYKDSTSPGKLTLSRNFTPTPVPKNKKLYQTSETKSASSFLDTFEGYFDQRKIVRTNAKSRHTMSMAPDVTREEFSLVSNFFNENFQKRPRQKLFEIQKKMFPQYWFELTQGFSLLFYGVGSKRNFLEEFAIDYLSPKIAYSQLAYENELQQNKPVNSIPCLILNGYNPSCNYRDVFKEITDLLVPAELTRSETKYWGNHVILQIQKMIDFYKNQPLDIKLILVVHNLDGPSIRKNTFQTMLSFLSVIRQIAIVASTDHIYAPLLWDNMKAQNYNFVFHDISNFEPSTVESTFQDVMKMGKSDTSSGAEGAKYVLQSLTVNSKKMYKLLIETQMQNMGNLSANTGPKRGTQRTGVELKLFNHLCAADFIASNEIALRSMLREFIEHKMANITKNNSGMEIIWVPYTYAELEKLLKTVLNTL
notes: Orc2, S. cerevisiae, subunit of ORC in the OCCM complex; source: in the OCCM complex assembled on pUC19-ARS1 beads as described elsewhere (Evrin et al, 2009)
As to B1, in assay [2], the binding result is listed as “binds”.

B2: Orc5 (natural protein, S. cerevisiae, UniProt P50874 1-479, looked up)
chain: MNVTTPEVAFREYQTNCLASYISADPDITPSNLILQGYSGTGKTYTLKKYFNANPNLHAVWLEPVELVSWKPLLQAIARTVQYKLKTLYPNIPTTDYDPLQVEEPFLLVKTLHNIFVQYESLQEKTCLFLILDGFDSLQDLDAALFNKYIKLNELLPKDSKINIKFIYTMLETSFLQRYSTHCIPTVMFPRYNVDEVSTILVMSRCGELMEDSCLRKRIIEEQITDCTDDQFQNVAANFIHLIVQAFHSYTGNDIFALNDLIDFKWPKYVSRITKENIFEPLALYKSAIKLFLSTDDNLSENGQGESAITTNRDDLENSQTYDLSIISKYLLIASYICSYLEPRYDASIFSRKTRIIQGRAAYGRRKKKEVNPRYLQPSLFAIERLLAIFQAIFPIQGKAESGSLSALREESLMKANIEVFQNLSELHTLKLIATTMNKNIDYLSPKVRWKVNVPWEIIKEISESVHFNISDYFSDIHE
notes: Orc5, S. cerevisiae, subunit of ORC in the OCCM complex; source: in the OCCM complex assembled on pUC19-ARS1 beads as described elsewhere (Evrin et al, 2009)
With B2, the binding result in assay [2] was “binds”.

B3: Cdt1 (natural protein, S. cerevisiae, UniProt P47112 1-604, looked up)
chain: MSGTANSRRKEVLRVPVIDLNRVSDEEQLLPVVRAILLQHDTFLLKNYANKAVLDALLAGLTTKDLPDTSQGFDANFTGTLPLEDDVWLEQYIFDTDPQLRFDRKCRNESLCSIYSRLFKLGLFFAQLCVKSVVSSAELQDCISTSHYATKLTRYFNDNGSTHDGADAGATVLPTGDDFQYLFERDYVTFLPTGVLTIFPCAKAIRYKPSTMATTDNSWVSIDEPDCLLFHTGTLLARWSQGMHTTSPLQIDPRANIVSLTIWPPLTTPISSKGEGTIANHLLEQQIKAFPKVAQQYYPRELSILRLQDAMKFVKELFTVCETVLSLNALSRSTGVPPELHVLLPQISSMMKRKIVQDDILKLLTIWSDAYVVELNSRGELTMNLPKRDNLTTLTNKSRTLAFVERAESWYQQVIASKDEIMTDVPAFKINKRRSSSNSKTVLSSKVQTKSSNANALNNSRYLANSKENFMYKEKMPDSQANLMDRLRERERRSAALLSQRQKRYQQFLAMKMTQVFDILFSLTRGQPYTETYLSSLIVDSLQDSNNPIGTKEASEILAGLQGILPMDISVHQVDGGLKVYRWNSLDKNRFSKLLQIHKSKQQD
notes: Cdt1, S. cerevisiae, subunit of the OCCM complex; source: in the OCCM complex assembled on pUC19-ARS1 beads as described elsewhere (Evrin et al, 2009)
Turning to B3, the binding result in assay [3] is listed as “binds”.
